From the supplement of paper PMC10126150
± gives the standard deviation of the averaged measurements.

Tested on: ATP
Assay: switch fluorescence ratio, 500 uM ATP over buffer (Cy3 cluster intensity, sum of 5 cycles each) (fold (ratio)); higher = stronger signal-on switching upon ATP binding; sequences stand for … in TCGTCGGCAGCGTCAGATGTGTATAAGAGACAGTTTTTTTTTTTTTTTTTTTTTTTTT…TC
Conditions: aptamer strand: ATP DNA aptamer (quencher-CACCTGGGGGAGTATTGCGGAGGAAGG + anchor), 100 nM annealed; ATP concentration: 500 uM
Summary of the method: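 Exposure to 500 uM ATP lasted 15 min at 22 °C before imaging, and a selection-buffer image was taken beforehand, for Cy3-labelled switching-strand clusters on a modified Illumina MiSeq flow-cell annealed to 100 nM quencher-labelled ATP aptamer. Five buffer/ATP cycles were run with NaOH stripping and re-annealing between them. The fluorescence ratio per cluster is summed target-cycle over summed buffer-cycle Cy3 intensity, averaged per switch-domain sequence. Clusters outside 100-1000 RFU were excluded.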

Sequence | switch fluorescence ratio
GATTTGAGCG | 0.9852 ± 0.0046
GATTTGAGTG | 0.959 ± 0.027
GATTTGCGGG | 0.9833 ± 0.0069
GATTTGTTTT | 0.994 ± 0.013
GATTTTAGAG | 0.9809 ± 0.003
GATTTTATTG | 1.01 ± 0.017
GATTTTCAGA | 0.998 ± 0.027
GATTTTCCTA | 0.9608 ± 0.0014
GATTTTGGGT | 1.02 ± 0.038
GATTTTGGTC | 0.967 ± 0.054
GATTTTGTAG | 1.01 ± 0.028
GATTTTGTCT | 0.9923 ± 0.0099
GATTTTGTTT | 0.996 ± 0.027
GATTTTTCAA | 1 ± 0.021
GATTTTTGCC | 1.01 ± 0.031
GATTTTTTAG | 0.998 ± 0.018
GATTTTTTAT | 0.999 ± 0.058
GCAAAAAGGA | 1.6 ± 0.89
GCAAAAAGGT | 0.996 ± 0.029
GCAAAAGAGA | 0.994 ± 0.032
GCAAAAGGAA | 0.975 ± 0.022
GCAAAAGGGC | 1.02 ± 0.014
GCAAATGATG | 1.01 ± 0.012

Sequence | switch fluorescence ratio
GCAACCGAGG | 1.04 ± 0.064
GCAAGAAAAA | 1.023 ± 0.0056
GCAAGACATT | 1.12 ± 0.019
GCAAGAGGGT | 1 ± 0.028
GCAAGCTGGG | 1.01 ± 0.014
GCAATCATTC | 1.18 ± 0.087
GCAATTGATG | 1.04 ± 0.017
GCAATTGGGT | 1.08 ± 0.012
GCAATTGTCG | 1.02 ± 0.046
GCACATAGCT | 1.01 ± 0.025
GCACATCTGT | 0.99 ± 0.056
GCACATGGCC | 1.03 ± 0.02
GCACCCGTAC | 1.52 ± 0.037
GCACCTATGG | 0.979 ± 0.025
GCACGCAGGA | 1.054 ± 0.006
GCACGGATGT | 1.029 ± 0.0097
GCACGGGGAA | 1.02 ± 0.028
GCACTAAACT | 1.05 ± 0.057
GCACTCGGCT | 0.991 ± 0.0047
GCACTTGGGG | 0.998 ± 0.057
GCACTTGGTC | 0.989 ± 0.011
GCAGAAAAAA | 0.988 ± 0.028
GCAGAATGCA | 0.9861 ± 0.0024

Sequence | switch fluorescence ratio
GCAGACAGCT | 1.037 ± 0.0085
GCAGACATAG | 0.983 ± 0.025
GCAGACCATT | 1.049 ± 0.0067
GCAGCAGATG | 1.077 ± 0.0072
GCAGCATCGG | 1.12 ± 0.021
GCAGCATCTG | 1.01 ± 0.024
GCAGCATGC | 1.1 ± 0.17
GCAGCCTGCT | 0.985 ± 0.032
GCAGCCTGTT | 0.994 ± 0.011
GCAGCTGGCT | 1.02 ± 0.11
GCAGGAAGGG | 0.977 ± 0.019
GCAGGAATTT | 1 ± 0.038
GCAGGAGGGA | 1.01 ± 0.039
GCAGGCAACT | 0.995 ± 0.018
GCAGGCCACA | 1.11 ± 0.065
GCAGGCGGGG | 1.02 ± 0.034
GCAGGGACAA | 1.01 ± 0.018
GCAGGGACCC | 1.12 ± 0.12
GCAGGGAGGG | 1 ± 0.041
GCAGGGGAGT | 1.17 ± 0.29
GCAGGGTGTC | 1.08 ± 0.048
GCAGGTATCA | 1.018 ± 0.007
GCAGGTGGGG | 1.1 ± 0.022

Sequence | switch fluorescence ratio
GCAGTAAAGC | 1.03 ± 0.032
GCAGTAAGTT | 0.978 ± 0.061
GCAGTAGTTA | 1.03 ± 0.013
GCAGTCATTA | 1.037 ± 0.0019
GCAGTGCCTA | 0.993 ± 0.044
GCAGTGGTAC | 2.41 ± 0.086
GCAGTTGGGT | 0.986 ± 0.028
GCATAGAAAA | 0.982 ± 0.015
GCATAGCCTG | 0.98 ± 0.034
GCATAGTCTG | 1.038 ± 0.0042
GCATAGTGGT | 1.008 ± 0.01
GCATATCGGG | 1.02 ± 0.017
GCATATTTTT | 1.026 ± 0.0032
GCATCAAAGG | 0.995 ± 0.013
GCATCCGGCG | 1.04 ± 0.081
GCATCGGGCC | 0.981 ± 0.026
GCATCTTCAC | 1.0378 ± 0.00044
GCATCTTGGG | 1 ± 0.029
GCATGACTGT | 1.01 ± 0.024
GCATGATGGA | 0.975 ± 0.022
GCATGCGGCT | 1.03 ± 0.1
GCATGGAGTA | 1.02 ± 0.029
GCATGGCGGC | 1.01 ± 0.019

Sequence | switch fluorescence ratio
GCATGGGGGG | 1.02 ± 0.042
GCATGTAGAT | 0.998 ± 0.047
GCATGTGTTC | 0.995 ± 0.038
GCATTAGTAT | 0.935 ± 0.044
GCATTCCGTT | 1.02 ± 0.011
GCATTGGGGC | 0.9893 ± 0.0098
GCATTGGGTG | 1.11 ± 0.054
GCATTGGTAC | 1.17 ± 0.071
GCATTGGTGG | 1.03 ± 0.019
GCATTGTGTG | 0.991 ± 0.037
GCATTGTTTG | 0.995 ± 0.034
GCATTTATGG | 0.949 ± 0.022
GCATTTCATG | 0.987 ± 0.021
GCATTTGCTT | 1.01 ± 0.019
GCATTTTTCT | 0.982 ± 0.031
GCATTTTTTC | 1.03 ± 0.019
GCCAATTACG | 1.11 ± 0.03
GCCAATTATT | 0.991 ± 0.031
GCCACACTAG | 1.06 ± 0.032
GCCACGGGGA | 1.0073 ± 0.00078
GCCAGAGGGG | 1.19 ± 0.34
GCCAGCAAGC | 2.25 ± 0.34
GCCAGCATGG | 1.003 ± 0.0046

Sequence | switch fluorescence ratio
GCCAGCGATC | 2.23 ± 0.81
GCCAGGGATT | 1.01 ± 0.029
GCCAGGGGGT | 1.08 ± 0.12
GCCAGGGTCA | 1.025 ± 0.0066
GCCATACGCG | 1.03 ± 0.016
GCCATGACGG | 0.988 ± 0.027
GCCCAAGGGG | 1.05 ± 0.091
GCCCATAGAC | 1.12 ± 0.041
GCCCATAGGA | 0.978 ± 0.094
GCCCCGGCTG | 1.03 ± 0.045
GCCCCGGGTT | 1.36 ± 0.37
GCCCGGCCAG | 0.9693 ± 0.0062
GCCCGGGCAT | 0.986 ± 0.013
GCCCGGGGGA | 1.94 ± 1.3
GCCCGTATGG | 1 ± 0.019
GCCCGTTCGG | 1.01 ± 0.028
GCCCTAGTGT | 1.13 ± 0.024
GCCCTGAGCG | 1.011 ± 0.0066
GCCCTTAGCA | 1.018 ± 0.0013
GCCGAAGGGG | 1.004 ± 0.0035
GCCGAATATG | 1.01 ± 0.015
GCCGACAAGC | 1.05 ± 0.083
GCCGCCAGGG | 1.26 ± 0.068

Sequence | switch fluorescence ratio
GCCGCGGGGA | 1.04 ± 0.024
GCCGGATTGG | 0.956 ± 0.021
GCCGGCTGTG | 0.9902 ± 0.0018
GCCGGCTTTC | 1.01 ± 0.048
GCCGGGACGC | 1.05 ± 0.049
GCCGGGGCGC | 1 ± 0.012
GCCGGTAGGG | 0.98 ± 0.031
GCCGGTTCTG | 1.06 ± 0.022
GCCGTCAGTT | 0.9899 ± 0.0048
GCCGTGCGGG | 0.978 ± 0.03
GCCGTTTTGG | 1 ± 0.034
GCCTAAGTTT | 0.986 ± 0.024
GCCTATGCAA | 1.48 ± 0.021
GCCTATTTGG | 0.998 ± 0.023
GCCTCAGACA | 1.047 ± 0.0092
GCCTCAGGAT | 0.996 ± 0.068
GCCTGAAAGC | 0.9912 ± 0.0054
GCCTGAGATG | 1.03 ± 0.017
GCCTGCTAGC | 1.008 ± 0.007
